The results in this text go back to article PMC5416766.

The target of one series is CTF18-RFC;p261Nexo- (human;human, UniProt Q8WVB6;Q9BVC3;P0CG13;P35250;P40938;P35249;P40937;Q07864 …, |D275A). Put plainly: photo-crosslinking.
The target in the next series is CTF18-RFC (human, UniProt Q8WVB6;Q9BVC3;P0CG13;P35250;P40938;P35249;P40937 …). Put plainly: EMSA.
The target of a further series is CTF18-RFC;PCNA (human;human, UniProt Q8WVB6;Q9BVC3;P0CG13;P35250;P40938;P35249;P40937;P12004 …, |). Description: EMSA. For orientation: In EMSA bound probe runs differently from free probe, usually more slowly.

B1: APB-Junction (dsDNA)
DNA 1: TGAGGTTCAGCAAGGTGATGCTTTAGATTTTTC
DNA 2: AGGCGGTCAGTATTAACACCGCCTGCAACAGTGCCACGCTGAGAGCCAGCAGCAAATGAAAAATCTAAAGCATCACCTTGCTGAACCTCA
modifications: APB on phosphorothioate dCMP at primer nt 33
Turning to B1, the binding signal with CTF18-RFC;p261Nexo- is ~3 fold p261Nexo- crosslink vs alone (CTF18 5-fold).

B2: dd-Junction (dsDNA)
DNA 1: TGAGGTTCAGCAAGGTGATGCTTTAGATTTTTCA
DNA 2: AGGCGGTCAGTATTAACACCGCCTGCAACAGTGCCACGCTGAGAGCCAGCAGCAAATGAAAAATCTAAAGCATCACCTTGCTGAACCTCA
modifications: 3' ddAMP (primer nt 34); APB on S-dCMP at primer nt 33
In the case of B2, the binding result in the series with CTF18-RFC and in the series with CTF18-RFC;PCNA was “no binding” throughout.
